Laboratory results as given in patent US7745574B2, “Compounds that regulate apoptosis” (The Burnham Institute, priority 2005, dated 2010).
Entries after “also recorded” stand apart in the source; their conditions may differ. Where no end group is shown, it is not given here. [ ]: non-standard residue; d: D form. Ahx = NCCCCCC(=O)O

Assays:
Mcl-1 = Mcl-1 (Homo sapiens, UniProt Q07820); test: Co-immunoprecipitation with myc-tagged Mcl-1 in HEK293T cells; type: binding
Procedure: (§1) Nur77 peptide binds anti-apoptotic Bcl-2 family members. Nur77-peptide binds Bcl-B, Bfl-1, and Bcl-2, but not Mcl-1 and Bcl-xL. […] The expression vector for the GFP-Nur77/489-497 fusion was transfected into HEK293T cells together with or without the indicated expression vector for myc-tagged Bcl-2 family member. Cell lysates were prepared and analyzed for interaction of Nur77/489-497 with Bcl-2 family members by co-immunoprecipitation assay using anti-Myc antibody. Immunoprecipitates were then separated on SDS/PAGE and immunoblotted using anti-GFP antibody. […] Nur77/Bcl-2 interaction assays—Reporter gene assays using NurRE-tk-CAT in CV-1 cells, and GST pull-down assay were described previously (Li, et al. 2000 Science 289:1159-1164). For the mammalian two-hybrid assays, CV-1 cells were co-transfected with pcDNA-Gal4TAD-Nur77 or pcDNA-Gal4TAD-Nur77/ΔDBD and pcDNA-Gal4 DBD-Bcl-2/ΔTM along with a luciferase reporter gene driven by four copies of the Gal-4-binding site. The cells were harvested and reporter gene activity was measured. […] Immunoreactive products were detected by chemiluminescence with an enhanced chemiluminescence system (ECL) (Amersham).

Bcl-B = biological target: T1, Bcl-B (Homo sapiens, UniProt Q9HD36); test: Co-immunoprecipitation with myc-tagged Bcl-B in HEK293T cells; type: binding
T1 construct: expressed in transfected cells; host or cells: HEK293T
T1 sequence (Q9HD36 1-204): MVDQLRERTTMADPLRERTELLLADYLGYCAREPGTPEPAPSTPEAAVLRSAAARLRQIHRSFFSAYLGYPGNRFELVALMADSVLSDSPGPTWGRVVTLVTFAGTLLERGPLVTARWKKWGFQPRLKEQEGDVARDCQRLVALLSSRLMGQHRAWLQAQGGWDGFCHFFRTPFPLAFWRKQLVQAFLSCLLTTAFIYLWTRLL
Procedure: as §1

Bcl-2 [1] = biological target: T2, Bcl-2 (Homo sapiens, UniProt P10415); test: Co-immunoprecipitation with Bcl-2 in HEK293T cells; type: binding; design: expressed in transfected cells; host or cells: HEK293T
Procedure: as §1, with “measured. For Co-IP assays, HEK293T cells were transiently transfected with various expression plasmids using a modified calcium phosphate precipitation method (Wu et al, 1997) in the presence of caspase inhibitors (zVAD-fmk) to prevent degradation of Nur77 protein due to apoptosis. Cells were suspended in lysis buffer (50 mM Tris-HCl, PH7.4; 150 mM NaCl; 20 mM EDTA; 1% NP-40; 1 mM PMSF; 50 μg/ml Leupeptin; […]; 0.1 mM Na3VO4; and 1 mM DTT). Cells extracts were cleared by incubation with the Protein A/G plus Agarose beads (Santa Cruz) and then incubated with appropriate antibody and 30 μl of Protein A or G plus Agarose beads overnight at 4° C.” for “measured.”
Target sequence in this assay (P10415 whole entry): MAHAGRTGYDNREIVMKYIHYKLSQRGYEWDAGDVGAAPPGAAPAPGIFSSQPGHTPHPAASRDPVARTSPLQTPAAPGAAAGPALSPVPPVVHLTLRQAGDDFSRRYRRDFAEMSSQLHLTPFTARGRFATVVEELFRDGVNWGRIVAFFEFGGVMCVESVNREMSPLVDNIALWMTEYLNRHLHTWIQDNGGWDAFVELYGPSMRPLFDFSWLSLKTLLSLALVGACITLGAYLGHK

mitochondria = test: Subcellular localization, colocalization with RFP-Mito; type: cell-based
Procedure: Subcellular localization assays—Cells were seeded onto cover-slips in 6-well plates overnight, then transiently transfected with GFP-fusion expression plasmids. After 16 hours, cells were washed with PBS and fixed in 4% paraformaldehyde. […] For cyt c staining, cells were incubated with monoclonal anti-cyt c IgG (PharMingen), followed by anti-mouse IgG conjugated with Cy5 (Amersham). Fluorescent images were collected and analyzed using a MRC-1024 MP laser-scanning confocal microscope (Bio-Rad). Subcellular fractionation assays were performed as described (Li, et al. 2000 Science 289:1159-1164). Briefly, cells (1×10^7 cells) suspended in 0.5 ml hypotonic buffer (5 mM Tris-HCl, pH 7.4, 5 mM KCl, 1.5 mM MgCl2, 0.1 mM EGTA, pH 8.0, and 1 mM DTT) were homogenized and cell extracts were centrifuged at 500×g for 5 min. The resulting supernatant was centrifuged at 10,000×g for 30 min at 4° C. to obtain the HM fraction. HM fraction was resuspended in 100 μl lysis buffer (10 mM Tris, pH 7.4, 150 mM NaCl, 1% Triton X-100, 5 mM EDTA, pH 8.0) for immunoblotting analysis.

Bcl-XL = Bcl-XL (Homo sapiens, UniProt Q07817); test: Co-immunoprecipitation with myc-tagged Bcl-XL in HEK293T cells; type: binding
Sequence of Bcl-XL (Q07817 whole entry, species assumed): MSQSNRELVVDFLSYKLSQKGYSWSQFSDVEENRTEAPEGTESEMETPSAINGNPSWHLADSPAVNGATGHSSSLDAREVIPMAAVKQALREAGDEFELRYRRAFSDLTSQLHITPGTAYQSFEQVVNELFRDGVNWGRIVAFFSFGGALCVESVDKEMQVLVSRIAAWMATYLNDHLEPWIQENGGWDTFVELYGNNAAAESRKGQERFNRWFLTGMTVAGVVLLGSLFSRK
Procedure: as §1

Bfl-1 = biological target: T3, Bfl-1 (Homo sapiens, UniProt Q16548); test: Co-immunoprecipitation with myc-tagged Bfl-1 in HEK293T cells; type: binding
T3 construct: expressed in transfected cells; host or cells: HEK293T
T3 sequence (Q16548 1-175): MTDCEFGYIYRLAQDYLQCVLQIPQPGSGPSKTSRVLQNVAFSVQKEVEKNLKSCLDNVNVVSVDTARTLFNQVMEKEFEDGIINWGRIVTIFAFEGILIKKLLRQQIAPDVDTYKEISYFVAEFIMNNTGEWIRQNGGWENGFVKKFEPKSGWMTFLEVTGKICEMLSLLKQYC
Procedure: as §1

[2] = Induction of apoptosis by Nur77 peptides, cell line not stated; type: cell-based
Procedure: Apoptosis assays—For nuclear morphological change analysis, cells were trypsinized, washed with PBS, fixed with 3.7% paraformaldehyde, and stained with DAPI (4,6-diamidino-2-phenylindole) (50 μg/ml) to visualize the nuclei by UV-microscopy. The percentages of apoptotic cells were determined by counting 300 GFP-positive cells, scoring cells having nuclear fragmentation and/or chromatin condensation.

GST-Bcl-2 = biological target: T4, GST-Bcl-2 (Homo sapiens, UniProt P10415); test: Immunoprecipitation of purified GST-Bcl-2 by anti-Bcl-2/BH3 antibody; type: biochemical
T4 construct: made in house
T4 sequence (P10415 whole entry): as the sequence (P10415 whole entry) above

H460 lung cancer cells [3] = test: Apoptosis in H460 lung cancer cells; type: cell-based; conditions: H460 cells; peptides conjugated with CPP, 10 μM
Bcl-2 [4] = biological target: T2, Bcl-2; test: Bcl-2 conformational change, anti-Bcl-2/BH3 antibody staining of HEK293T cells transfected with Bcl-2; type: cell-based; design: expressed in transfected cells; host or cells: HEK293T
Procedure: Such a Bcl-2 conformation is recognized by an anti-Bcl-2 antibody raised against the Bcl-2 BH3 domain. To determine whether NuBCP-9 induced a Bcl-2 conformational change, flow cytometric assays were conducted which HEK293T cells transfected with Bcl-2 were exposed to NuBCPs and subsequently stained with the anti-Bcl-2/BH3 antibody.
Target sequence in this assay (P10415 whole entry): as above

Bcl-2 [5] = biological target: T2, Bcl-2; test: Competition assay of Nur77/ΔDBD binding with Bcl-2; design: expressed in transfected cells; host or cells: HEK293T
Procedure: Nur77/Bcl-2 interaction assays—Reporter gene assays using NurRE-tk-CAT in CV-1 cells, and GST pull-down assay were described previously (Li, et al. 2000 Science 289:1159-1164). For the mammalian two-hybrid assays, CV-1 cells were co-transfected with pcDNA-Gal4TAD-Nur77 or pcDNA-Gal4TAD-Nur77/ΔDBD and pcDNA-Gal4 DBD-Bcl-2/ΔTM along with a luciferase reporter gene driven by four copies of the Gal-4-binding site. The cells were harvested and reporter gene activity was measured. For Co-IP assays, HEK293T cells were transiently transfected with various expression plasmids using a modified calcium phosphate precipitation method (Wu et al, 1997) in the presence of caspase inhibitors (zVAD-fmk) to prevent degradation of Nur77 protein due to apoptosis. Cells were suspended in lysis buffer (50 mM Tris-HCl, PH7.4; 150 mM NaCl; 20 mM EDTA; 1% NP-40; 1 mM PMSF; 50 μg/ml Leupeptin; […] Aprotinin; 0.1 mM Na3VO4; and 1 mM DTT). Cells extracts were cleared by incubation with the Protein A/G plus Agarose beads (Santa Cruz) and then incubated with appropriate antibody and 30 μl of Protein A or G plus Agarose beads overnight at 4° C. […] Immunoreactive products were detected by chemiluminescence with an enhanced chemiluminescence system (ECL) (Amersham).
Target sequence in this assay (P10415 whole entry): as above

H460 lung cancer cells [6] = test: Apoptosis in H460 lung cancer cells; type: cell-based
Procedure: Bcl-2 siRNAs and antisense oligonucleotides-The target siRNA SMARTpools for Bcl-2 and Bak and the siRNA oligonucleotide for Nur77 (5'-[…] NO: 67) were purchased from Dharmacon Research Inc. Target or control siRNA were transfected at a final concentration of 200 nM into cells at 40% confluency using Oligofectamine reagent (Invitrogen) according to the manufacturer's recommendations. After 48 h, cells were analyzed. Bcl-2 antisense oligonucleotide targeting Bcl-2 and negative control oligonucleotides were obtained from Calbiochem. […] The percentages of apoptotic cells were determined by counting 300 GFP-positive cells, scoring cells having nuclear fragmentation and/or chromatin condensation. Cell culture. […] HEK293T embryonic kidney cells were grown in DME medium supplemented with 10% FBS. Jurkat and Jurkat cells stably expressing Bcl-2 were kindly provided by Dr. John Reed, and they were maintained in RPMI1640 medium.

Bcl-2 [7] = biological target: T2, Bcl-2; test: Immunoprecipitation of endogenous Bcl-2 by anti-Bcl-2/BH3 antibody in treated cells; type: cell-based; design: precipitated endogenous Bcl-2 in cells treated with L-NuBCP-9-r8 or D-NuBCP-9-r8; endogenous in cells
Target sequence in this assay (P10415 whole entry, species assumed): as the sequence (P10415 whole entry) above

[8] = test system: MDA-MB435 breast carcinoma cells; test: MDA-MB435 tumors in SCID mice; type: in vivo
Procedure: Animal studies. Female SCID mice (6-week-old) (Tacomic) were injected with 10^6 MDA-MB435 breast carcinoma cells. Tumors were palpable on day 7. On days 10 and 13, test peptides (620 μg in 50 μL PBS) were injected into the tumor areas of 5 mice. Tumor volumes (1×w^2) were determined using calipers. No weight changes were observed. Established tumors in control mice were injected with test peptides and tumor tissues were excised and sectioned after 3 days. Tissues were fixed (10% buffered formalin), then rapidly paraffin-embedded. Apoptosis was detected by the TUNEL assay.

Sequence of Mcl-1 (Q07820 whole entry, species assumed, the tested form may be a part): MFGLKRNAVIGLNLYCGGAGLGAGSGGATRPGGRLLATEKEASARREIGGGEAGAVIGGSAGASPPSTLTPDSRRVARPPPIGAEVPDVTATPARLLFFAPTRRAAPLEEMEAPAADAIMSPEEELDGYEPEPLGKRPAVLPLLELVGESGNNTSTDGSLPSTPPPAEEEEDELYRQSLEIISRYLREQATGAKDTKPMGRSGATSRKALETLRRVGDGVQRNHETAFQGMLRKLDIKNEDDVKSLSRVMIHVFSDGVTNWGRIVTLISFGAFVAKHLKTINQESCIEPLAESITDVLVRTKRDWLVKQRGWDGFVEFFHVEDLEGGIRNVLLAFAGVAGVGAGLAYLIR

interaction with Mcl-1 by co-immunoprecipitation (Mcl-1) | interaction with Bcl-B by co-immunoprecipitation (Bcl-B) | interaction with Bcl-XL by co-immunoprecipitation (Bcl-XL) | interaction with Bfl-1 by co-immunoprecipitation (Bfl-1) | precipitation of GST-Bcl-2 protein by anti-Bcl-2/BH3 antibody (GST-Bcl-2) | Bcl-2 immunofluorescence by anti-Bcl-2/BH3 antibody (Bcl-2 [4]; flow cytometry) | Bcl-2 staining by anti-Bcl-2/BH3 antibody (Bcl-2 [4]; fluorescence microscopy) | Bcl-2 immunofluorescence in the presence of caspase inhibitor zVAD (Bcl-2 [4]; zVAD present) | binding of Nur77/ΔDBD with Bcl-2 in presence of peptide (Bcl-2 [5]) | precipitation of endogenous Bcl-2 by anti-Bcl-2/BH3 antibody (Bcl-2 [7]) | Substance | interaction with Bcl-2 by co-immunoprecipitation (Bcl-2 [1]) | colocalization with RFP-Mito (mitochondria) | induction of apoptosis [2] | apoptotic effect (H460 lung cancer cells [3]) | apoptotic function after Bcl-2 antisense oligonucleotides (H460 lung cancer cells [6]; Bcl-2 antisense oligonucleotides) | apoptotic effect after transfection of Bcl-2 siRNA (H460 lung cancer cells [6]; H460 cells, Bcl-2 siRNA vs control GFP siRNA) | growth of tumors ([8]; SCID mice, 620 μg injected into tumor areas on days 10 and 13, vs control NuBCP-9/AA-r8) | apoptosis of tumor cells in vivo ([8]; TUNEL assay)
not | interacts | not | interacts | – | – | – | – | – | – | GFP-Nur77/489-497: NuBCP-9 (Nur77/489-497) sequence cloned as a green fluorescence protein (GFP) fusion (FSRSLHSLL; also: fused to GFP) | precipitated by anti-Bcl-2 antibody only when Bcl-2 was co-expressed; also recorded: interacts | colocalized extensively | apoptotic | – | – | – | – | –
– | – | – | – | strong precipitation | strong Bcl-2 immunofluorescence | strongly stained | observed | abrogated | precipitated | acetyl------------FSRSLHSLLGXrrrrrrrr-amide (Ac-FSRSLHSLLG[Ahx][dR][dR][dR][dR][dR][dR][dR][dR]-NH2; SMILES CC(=O)N[C@@H](Cc1ccccc1)C(=O)N[C@@H](CO)C(=O)N[C@@H](CCCNC(=N)N)C(=O)N[C@@H](CO)C(=O)N[C@@H](CC(C)C)C(=O)N[C@@H](Cc1c[nH]cn1)C(=O)N[C@@H](CO)C(=O)N[C@@H](CC(C)C)C(=O)N[C@@H](CC(C)C)C(=O)NCC(=O)NCCCCCC(=O)N[C@H](CCCNC(=N)N)C(=O)N[C@H](CCCNC(=N)N)C(=O)N[C@H](CCCNC(=N)N)C(=O)N[C@H](CCCNC(=N)N)C(=O)N[C@H](CCCNC(=N)N)C(=O)N[C@H](CCCNC(=N)N)C(=O)N[C@H](CCCNC(=N)N)C(=O)N[C@H](CCCNC(=N)N)C(N)=O) [NuBCP-9-r8] | – | – | – | potently induce apoptosis | attenuated | inhibited | dramatically suppressed | potently induced
